The record followed here is US20100286367.

The target in the data set is T1, purified human Lys77-Plasminogen, P00747.
T1 chain: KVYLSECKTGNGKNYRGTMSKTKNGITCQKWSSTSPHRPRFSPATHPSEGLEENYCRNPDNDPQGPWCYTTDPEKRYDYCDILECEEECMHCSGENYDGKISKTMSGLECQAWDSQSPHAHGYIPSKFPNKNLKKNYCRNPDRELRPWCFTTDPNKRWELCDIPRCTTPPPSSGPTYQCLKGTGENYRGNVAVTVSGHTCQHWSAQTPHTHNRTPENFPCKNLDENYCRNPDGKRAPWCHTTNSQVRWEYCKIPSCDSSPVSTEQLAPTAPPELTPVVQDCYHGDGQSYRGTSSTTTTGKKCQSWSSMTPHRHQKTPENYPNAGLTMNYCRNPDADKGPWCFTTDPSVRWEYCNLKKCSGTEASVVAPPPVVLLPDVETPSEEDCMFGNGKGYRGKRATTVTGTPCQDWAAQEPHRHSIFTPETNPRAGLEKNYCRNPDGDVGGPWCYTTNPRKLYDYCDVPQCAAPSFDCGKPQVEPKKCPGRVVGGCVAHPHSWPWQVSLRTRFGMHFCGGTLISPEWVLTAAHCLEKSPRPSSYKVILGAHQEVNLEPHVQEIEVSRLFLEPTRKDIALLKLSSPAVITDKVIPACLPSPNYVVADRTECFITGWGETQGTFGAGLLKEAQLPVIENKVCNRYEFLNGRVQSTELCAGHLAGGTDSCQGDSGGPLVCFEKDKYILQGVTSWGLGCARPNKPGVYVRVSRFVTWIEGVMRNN

B1: thiolated streptokinase (protein)
chain: IAGPEWLLDRPSVNNSQLVVSVAGTVEGTNQDISLKFFEIDLTSRPAHGGKTEQGLSPKSKPFATDSGAMSHKLEKADLLKAIQEQLIANVHSNDDYFEVIDFASDATITDRNGKVYFADKDGSVTLPTQPVQEFLLSGHVRVRPYKEKPIQNQAKSVDVEYTVQFTPLNPDDDFRPGLKDTKLLKTLAIGDTITSQELLAQAQSILNKNHPGYTIYERDSSIVTHDNDIFRTILPMDQEFTYRVKNREQAYRINKKSGLNEEINNTDLISEKYYVLKKGEKPYDPFDRSHLKLFTIKYVDVDTNELLKSEQLLTASERNLDFRDLYDPRDKAKLLYNNLDAFGIMDYTLTGKVEDNHDDTNRIITVYMGKRPEGENASYHLAYDKDRYTEEEREVYSYLRYTGTPIPDNPNDK
Regarding B1, the “plasmin generated in the plasminogen activation assay (S-2251 amidolysis, SU/ml)” value is listed as “thiolated SK (1 nM) generated plasmin at a nearly linear of 4225 SU/mL”.
